In paper PMC5763331:

Target: PROTEOLYSIS1 (PRT1) (Arabidopsis thaliana) (UniProt Q8LBL5)
Sequence (Q8LBL5 whole entry): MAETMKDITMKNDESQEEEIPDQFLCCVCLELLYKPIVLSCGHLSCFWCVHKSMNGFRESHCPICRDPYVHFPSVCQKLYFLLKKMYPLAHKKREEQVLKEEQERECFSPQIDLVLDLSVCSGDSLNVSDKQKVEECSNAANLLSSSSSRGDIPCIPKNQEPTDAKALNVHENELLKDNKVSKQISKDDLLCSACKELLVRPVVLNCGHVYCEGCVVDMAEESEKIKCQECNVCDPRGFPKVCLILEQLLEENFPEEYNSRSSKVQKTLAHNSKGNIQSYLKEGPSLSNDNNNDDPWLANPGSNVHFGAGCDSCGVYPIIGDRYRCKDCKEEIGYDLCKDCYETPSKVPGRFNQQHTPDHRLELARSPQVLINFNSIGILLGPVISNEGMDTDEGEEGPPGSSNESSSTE

E2-conjugating enzyme UBC8, sequence (P35131 whole entry): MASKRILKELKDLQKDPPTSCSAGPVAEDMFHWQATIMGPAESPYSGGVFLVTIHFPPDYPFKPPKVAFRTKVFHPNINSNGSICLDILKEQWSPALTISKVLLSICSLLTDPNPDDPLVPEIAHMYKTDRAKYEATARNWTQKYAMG

## E2-conjugating enzyme UBC8 (from UniProt P35131 1-148)
  Michaelis-Menten constant (K M) of substrate ubiquitination by PRT1 at different E2 concentrations (fluorescence polarization of the F-eK-Flv-NBD substrate, UBC8 up to 2 μM): 0.08 µM
